Results taken from patent US20240294650A1 (Alector, published 2024).
Numbering of substitutions follows the chain as printed.

T1: Full Axl (ECD domain of human Axl) (human, UniProt P30530 26-451)
T1 construct: also called human Axl ECD
T1 sequence: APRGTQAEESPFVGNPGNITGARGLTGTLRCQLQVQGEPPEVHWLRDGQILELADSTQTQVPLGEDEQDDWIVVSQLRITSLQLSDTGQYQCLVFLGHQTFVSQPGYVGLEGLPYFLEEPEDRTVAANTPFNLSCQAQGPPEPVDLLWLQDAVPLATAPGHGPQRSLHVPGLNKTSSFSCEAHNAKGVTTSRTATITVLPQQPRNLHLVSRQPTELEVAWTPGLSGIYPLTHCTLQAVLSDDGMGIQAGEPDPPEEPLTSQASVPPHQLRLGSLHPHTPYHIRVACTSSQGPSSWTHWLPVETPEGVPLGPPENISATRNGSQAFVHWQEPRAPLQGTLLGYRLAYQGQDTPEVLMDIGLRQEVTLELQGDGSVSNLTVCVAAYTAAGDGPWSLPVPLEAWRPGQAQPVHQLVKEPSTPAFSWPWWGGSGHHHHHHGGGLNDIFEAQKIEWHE

T2: endogenous murine MerTK on bone marrow-derived macrophages (mouse, UniProt Q60805 19-994)
T2 construct: whole, on cells; MFI on MerTK KO BMDM subtracted; also called BMDM WT-KO
T2 sequence (looked up): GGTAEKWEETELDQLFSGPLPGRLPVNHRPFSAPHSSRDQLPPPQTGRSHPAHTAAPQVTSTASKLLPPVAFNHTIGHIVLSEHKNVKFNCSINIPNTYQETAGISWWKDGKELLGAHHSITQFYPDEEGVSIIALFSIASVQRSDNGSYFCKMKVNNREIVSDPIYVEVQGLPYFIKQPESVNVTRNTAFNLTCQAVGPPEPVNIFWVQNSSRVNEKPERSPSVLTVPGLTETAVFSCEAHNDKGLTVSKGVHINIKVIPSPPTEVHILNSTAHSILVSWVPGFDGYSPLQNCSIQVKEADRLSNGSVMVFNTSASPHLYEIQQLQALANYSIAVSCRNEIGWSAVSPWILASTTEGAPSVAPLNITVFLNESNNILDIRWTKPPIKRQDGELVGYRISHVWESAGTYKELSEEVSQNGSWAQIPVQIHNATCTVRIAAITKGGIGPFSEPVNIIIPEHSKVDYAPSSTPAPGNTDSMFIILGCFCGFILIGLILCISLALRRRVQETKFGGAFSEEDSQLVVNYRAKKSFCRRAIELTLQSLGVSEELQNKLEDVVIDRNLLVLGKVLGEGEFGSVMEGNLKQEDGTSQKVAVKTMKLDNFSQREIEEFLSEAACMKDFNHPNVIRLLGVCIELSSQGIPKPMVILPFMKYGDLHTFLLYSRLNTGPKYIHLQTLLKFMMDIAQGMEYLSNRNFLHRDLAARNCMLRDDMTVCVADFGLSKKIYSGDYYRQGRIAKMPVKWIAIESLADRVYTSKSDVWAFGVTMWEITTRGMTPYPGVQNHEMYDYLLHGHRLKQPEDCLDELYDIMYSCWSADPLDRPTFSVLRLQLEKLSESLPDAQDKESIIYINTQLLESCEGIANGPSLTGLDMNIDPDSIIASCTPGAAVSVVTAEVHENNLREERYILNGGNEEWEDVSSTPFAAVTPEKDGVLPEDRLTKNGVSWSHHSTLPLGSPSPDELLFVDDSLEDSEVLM

B1: MTK-214 (antibody, human IgG1, V domains shown)
VH: QVQLQQPGAELVKPGASVKVSCKASGYTFTNYWMHWMKQRPGQGLEWIGRIHPFDSDTNYNEKFTDKATLTVDKSSSTAYMQLSSLTSEDSAVYYCAIGTLIYWGQGTTLTASS
VL: DILLTQSPATLSVTPGETVSLSCRASQSIYKKLHWFQQRSHRSPRLLIKFASDSISGIPSRFTGSGSGTDYTLSINSVKPEDEAIYYCLQGYSTPLTFGAGTKLELK
B2: MTK-206 (antibody, human IgG1, V domains shown)
VH: QVQLQQSGAELARPGASVKMSCKASGYTFTSYTMHWVKQRPGQGLEWIGYINPSSGYIKNSQKFKDKATLTADKSSSTAYMQLSSLTSEDSAVYYCARTVYGYYGSSPDYWGQGTTLTVSS
VL: DIQMTQSPSSLSASLGERVSLTCRASQDIGSNLNWLQQEPDGTIKRLIYATSSLESGVPKRFSGSRSGSDYSLTISSLESEDFVDYYCLQYDSSPWTFGGGTKLEIK
B3: MTK-224 (antibody, human IgG1, V domains shown)
VH: QVQLQQPGAELVKPGASVKVSCKASGYTFTSYWMHWVKQRPGQGLEWIGRIHPFDSDTNYNQKFKGKATLTVDKSSSTAYMQLSSLTSEDSAVYYCSIAGFAYWGQGTLVTVSA
VL: DIVMTQSPATLSVTPGDRVSLSCRASQIISDYLNWYQQKSHESPRLLIKYASQSISGIPSRFSGSGSGSDFTLSINSVEPEDVGVYYCQNGHSFPLTFGAGTKLELK
B4: MTK-209 (antibody, human IgG1, V domains shown)
VH: B3 VH with S31N, M34I, D57E, T58P, Q82H, S84T, S97A, I98L, G100S
VL: ETTVTQSPASLSMAMGEKATIRCITSTDIDDKMNWYQQKPGKPPKLLISAGNTLRPGVPSRFSSSGYGTDFVLTVENMLSEDVADYYCLQGGALPLTFGSGTKLEIK
B5: MTK-225 (antibody, human IgG1, V domains shown)
VH: EVQLQQSGPELVKPGASVKIFCKASGYTFTAYNMDWVKQSHGKSLEWIGDINPNNGGTIYNQKFKGKATLTVDKSSSTAYMELRSLTSEDTAVYYCARRRRYGNTYYWYFDVWGTGTTVTVSS
VL: DIQMTQSPASLSVSVGETVTITCRASENIYSSLAWYQQKQGKSPQLLVYAATNLADGVPSRFSGSGSGTQFYLKINGLQSEDFGSYYCQHFWGTSYTFGGGTKLEIK
B6: MTK-202 (antibody, human IgG1, V domains shown)
VH: EVQLVESGGGLVKPGGSLKLSCAASGFTFSDFGMHWVRQVPEKGLEWVAFISGGSNTIYYTDTVKGRFTISRDNAKNTLFLQMTSLRSEDTAMYYCVRNGNSFAYWGQGTLVTVSA
VL: NIMMTQSPSSLAVSAGEKVTMNCKSSQSVLYSSNQKNYLAWYQQKPGQSPKLLIYWASTRESGVPDRFTGSGSGTDFTLTISNIQAEDLAIYYCHQYFFSWTFGGGTKLEIK
B7: MTK-204 (antibody, human IgG1, V domains shown)
VH: EVQLVESGGGLVKPGGSLKLSCAASGFTFSDYGMHWVRQAPEKGLEWVAYISSGTSTIYYEDTVKGRFTISRDNAKNTLFLQMTSLRSEDTAMYYCARGGLLFDYWGQGTTLTVSS
VL: B6 VL with N22S, Y55Q, G74E, S82R, N83S, I84V, I91V, F99S
B8: MTK-203 (antibody, human IgG1, V domains shown)
VH: QVQLQQPGAELVKPGASVKVSCKASGYTFTNYWMHWVKQRPGQGLEWIGRIHPFDTETNDNQKFKGKATLTVDKSSSTAYMQLSSLTSEDSAVYYCVIPANGGFAYWGQGTLVTVSA
VL: ETTVTQSPASLSVATGEKVTIRCITSTDIGDDMNWYQQKPGEPPKVLISEGNSLRPGVPSRFSSSGYGTDFVFTIENTLSEDVADYFCLQSDNLPLTFGSGTKLEIK
B9: MTK-230 (antibody, human IgG1, V domains shown)
VH: EVQLQQSGPELVKPGASVRIPCKASGYTFSDYNMDWVKQSHGKSLEWIGNINPNIGGTIYSQKFKGKATLTVDKSSSTAYMELRSLTSEDTAVYYCARGDYGFASWGQGTLVTVSA
VL: DIVLTQSPASLTVSLGQRATISCRASRSVSTSGYSYMHWYQQKPGQPPKLLIYLASNLESGVPARFSGSRSGTDFTLNIHPVEEEDAATYYCQHSREYPFTFGSGTKLEIK
B10: MTK-212 (antibody, human IgG1, V domains shown)
VH: QVQLQQSGPELVKPGASVKISCKASGYAFSSSWVNWVKQRPGKGLEWIGRIYPGDGDSNYNGNFKGKATLTADKSSNTAYLQLSSLTSEDSAVYFCARKSHFIYYTLDYWGQGTPVTVSS
VL: DIVMTQSHKFKSTSVGDRVSIACKASQDVGTSVAWYQQKPGKSPKLLIYWASSRHTGVPDRFTGSGSGTDFTLTISNVQSEDLTDYFCQQYSTYPYTFGGGTKLEIK
B11: MTK-231 (antibody, human IgG1, V domains shown)
VH: DVQLQESGPGLVKPSQSLSLTCSVTGYSITSGYYWNWIRQFPGNKLEWMGYISYDGTYNYHPSLKNRISITRDTSKNQFFLTLNSVTTEDTATFYCTRGGGYWGQGTSVTVSS
VL: DVVMTQTPLSLPVSLGDQASISCRSSQSLVHSDGNTYLHWYLQKPGQSPKLLIYKVSNRFSGVPDRFSGSGSGTDFTLKISRLEAEDLGIYFCSQTTHIPLTFGSGTKLEIK
B12: MTK-222 (antibody, human IgG1, V domains shown)
VH: QVQLQQSGADLMKPGASVKLSCKATGYTFTGYWIEWVKQRPGHGLEWIGEILTGSGSSNYNEKFKGKATFTADSSSNTAFMQLSSLTTEDSAIYYCAGSYYSNSWFPYWGQGSLVTVSA
VL: DIVLTQSPVSLAVSLGQRATISCRASESVDSYGSSFMHWYQQKPGQPPKLLIYRASSLESGIPARFSGSGSRTDFTLTINPVETDDVATYYCQQSNEDPRTFGGGTKLEIK

molecular target: T1, Full Axl (ECD domain of human Axl); assay: SPR (data not shown)
Experimental: Binding of anti-MerTK antibodies of the present disclosure to these domain-swapped chimera or deletion mutants was tested by Surface Plasmon Resonance (SPR) using Carterra LSA. Purified anti-MerTK antibodies were immobilized in duplicate on a HC30M chip (Carterra) by amine coupling, following the manufacturer's instructions (described previously).
Supernatants containing the constructs were diluted 1:1 with running buffer containing 0.5 mg/mL BSA (HBS-TE, Carterra; BSA, Sigma) and injected over the immobilized antibodies. The surface was regenerated with 10 mM Glycine pH2.0 after each construct injection. Sensorgrams were analyzed using Carterra Epitope software to identify patterns of construct binding. Loss of binding to MerTK constructs with domains deleted or swapped in from Axl and/or gain of binding to Axl constructs with MerTK domains swapped in were evaluated. Data from these studies were used to construct a domain binding map for anti-MerTK antibodies and their binding to various domains of human MerTK.

binding result | Binder
no binding | B1
no binding | B2
no binding | B3
no binding | B4
no binding | B5
no binding | B6
no binding | B7
no binding | B8
no binding | B9
no binding | B10
no binding | B11
no binding | B12

molecular target: T2, endogenous murine MerTK on bone …; assay: FACS, mouse BMDM, WT minus MerTK KO
Experimental: To determine whether recombinant anti-human MerTK antibodies of the present disclosure bind to human MerTK endogenously expressed on SK-MEL-5 cells and CHO cells overexpressing mouse MerTK (CHO-muMerTK OE cells), as compared to A375 and parental CHO cells as negative controls, the following experiments were performed. SK-MEL-5 cells, A375 cells, CHO-muMerTK OE cells, and CHO parental cells were plated at 100,000 cells/well. Anti-MerTK antibodies were added to the cells at 10 μg/ml. After 60 minutes on ice, cells were washed and then stained with PE-conjugated goat anti-human IgG antibody (Southern Biotech Cat #2040-09, Birmingham, AL) in the presence of Fc block solution on ice for 30 minutes, and then washed twice with cold FACS buffer (2% FBS in PBS). Mouse anti-human MerTK-PE conjugated (Biolegend, Clone 590H11G1E3) or anti-mouse MerTK-PE conjugated (ThermoFisher, Clone DS5MMER) antibodies were used as positive controls. Stained cells were acquired on a BD FACS Canto II cytometer and the mean fluorescence intensity (MFI) was calculated with FlowJo.
To confirm anti-MerTK antibody binding to endogenous murine MerTK, bone marrow-derived macrophages (BMDM) were isolated from MerTK wild type (WT) and knockout (KO) mice (The Jackson Laboratory, Cat #011122) using standard protocols. Briefly, cells isolated from the bone marrow were plated in the presence of 50 ng/ml M-CSF (R&D Systems, Cat #416-ML) for seven days to allow for differentiation into macrophages. Cell staining, FACs, and MFI were performed and calculated as described above.

MFI [MFI] | Binder
2950 | B1
431 | B2
1860 | B3
813 | B4
619 | B5
4510 | B6
602 | B7
2980 | B8
9120 | B9
9090 | B10
639 | B11
3680 | B12
